± gives the standard deviation of the averaged measurements.
System: ATP
Experiment: switch fluorescence ratio, 500 uM ATP over buffer (Cy3 cluster intensity, sum of 5 cycles each) (fold (ratio)); higher = stronger signal-on switching upon ATP binding; sequences stand for … in TCGTCGGCAGCGTCAGATGTGTATAAGAGACAGTTTTTTTTTTTTTTTTTTTTTTTTT…TC
Conditions: aptamer strand: ATP DNA aptamer (quencher-CACCTGGGGGAGTATTGCGGAGGAAGG + anchor), 100 nM annealed; ATP concentration: 500 uM
Summary of the method: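 The fluorescence ratio divides summed target-cycle Cy3 intensity by summed buffer-cycle Cy3 intensity for each cluster and is averaged per switch-domain sequence. Cy3-labelled switching-strand clusters on a modified Illumina MiSeq flow-cell were annealed to 100 nM quencher-labelled ATP aptamer, then imaged in selection buffer and again after 15 min with 500 uM ATP at 22 °C. Five such cycles were run, with NaOH stripping and re-annealing between them, and clusters outside 100-1000 RFU were excluded.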
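Also: ATP exposure 15 min at 22 °C before imaging.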

Sequence	switch fluorescence ratio
AACGTACTTG	1.54 ± 0.044
TTCTAGGCGC	0.9972 ± 0.0073
GGCAGGGGGA	1.01 ± 0.015
ATACAGGGGG	1.02 ± 0.067
GACTTAGCTT	1.046 ± 0.0055
GCGATTTAGA	0.994 ± 0.016
TGCCGGTGGT	1.01 ± 0.035
GGGGGGATAA	1.08 ± 0.21
GGATATAGTC	1 ± 0.036
TTTACGCGCA	1.01 ± 0.03
GTAGTAGGTG	1 ± 0.033
AGGGGGGTTG	1 ± 0.032
CAATAATTTA	1.004 ± 0.0086
TGTAGGGTCA	0.9819 ± 0.0023
TGGGTCTCTT	1.01 ± 0.008
TTTCTAGCGG	1.01 ± 0.054
CGCGGGGAAG	0.98 ± 0.053
TTTAAAGACT	1.01 ± 0.056
GGATTGATTA	1.01 ± 0.032
TTATGTCAGA	0.987 ± 0.034
GAGTGCGTCG	1.01 ± 0.16
GACAGAGGTT	1 ± 0.021
GGGGAGGAAT	0.971 ± 0.024
ATAGGATGGA	1 ± 0.029
TGTTATAGCC	1.03 ± 0.04

Sequence	switch fluorescence ratio
CCAGGGGGAT	1.97 ± 1.3
TTATGTGGGG	0.993 ± 0.033
TAGGTCGGGT	0.984 ± 0.035
ATTAGTAGAA	0.995 ± 0.016
GGATGTTTGG	0.975 ± 0.014
ATTTCAGCTG	0.982 ± 0.027
TTGACGGGCT	1.05 ± 0.043
CCTGGTTAGG	0.983 ± 0.013
GAGGGGGAAG	1 ± 0.049
GGTTTTCGGG	0.969 ± 0.035
TCGCCGTATG	0.999 ± 0.018
TTATGGAAGA	0.98 ± 0.026
GATTGAATAT	0.983 ± 0.032
TAAGAAGTCC	0.977 ± 0.045
TGGGTACTTT	0.994 ± 0.016
ACACGTGCCC	1 ± 0.028
TAGGCGTGCT	0.987 ± 0.013
TCTTATCTTG	0.978 ± 0.037
CGCTTTACTA	2.21 ± 0.07
AGAGTGGTGG	0.9769 ± 0.0097
ATGCATGGGC	1.03 ± 0.022
AACGTAGCGG	1.07 ± 0.03
TGCTATTGTG	0.959 ± 0.02
ACGGTCCTTT	0.973 ± 0.038
GCAGATTGGC	1.034 ± 0.01

Sequence	switch fluorescence ratio
TTATGGGCTT	1.27 ± 0.42
AAGTTTGTCT	1.004 ± 0.0053
AATATGGGTT	0.9802 ± 0.0091
CGTTTTAGAG	1.01 ± 0.016
GTGTTTCCGG	1.01 ± 0.045
ATCAGATATG	0.9974 ± 0.0033
TTTGGTTAGG	0.985 ± 0.019
GGACACATGC	1.1 ± 0.14
GATGTAAGAA	0.993 ± 0.028
ACATGATTGG	0.97 ± 0.037
AGTGGGGATG	1.01 ± 0.013
CAGGCCTCTT	0.9943 ± 0.0035
TAGTTACTTT	1.02 ± 0.021
AAGTTATCAT	0.964 ± 0.019
TTAATAAATC	0.996 ± 0.021
CATAGGGAGA	1.006 ± 0.0042
TTTACTGAGA	1.01 ± 0.033
GAAAAAATCC	1.29 ± 0.34
AGCAAAATGG	1.0258 ± 0.00022
TAGGGGGTCG	0.971 ± 0.042
ATATAATTTT	0.979 ± 0.031
CCACCGGGGA	1.85 ± 0.49
CAGGTCTTGG	1.01 ± 0.03
TCGGATTTGT	1.01 ± 0.041
TGTTGTATGC	0.9617 ± 0.0042

Sequence	switch fluorescence ratio
AGTGTTGTGG	0.9904 ± 0.0021
TACGGGATGG	0.989 ± 0.029
TCGTAATAGT	1.62 ± 0.068
TTAGTCACGC	1.029 ± 0.0092
AGTGGGGAGA	1.02 ± 0.035
CAGTTATGGC	0.999 ± 0.026
AACTCGGAAT	1.03 ± 0.028
GTTCAAGATA	1 ± 0.036
CGCATAGTTG	1.06 ± 0.024
ACCGTATGGC	1.02 ± 0.023
GGTATTGCTT	0.995 ± 0.0021
AAAAGTAAAA	1.03 ± 0.061
GACACACAAG	1.14 ± 0.016
TTATCTGTTG	1 ± 0.058
AGGGGGACTG	0.9635 ± 0.0022
GGTTTTTGGG	0.994 ± 0.033
CATTGAGGGT	0.968 ± 0.052
AACTGGGGGG	1 ± 0.045
GGATGGGATG	0.989 ± 0.04
CGTTTTTCCG	1.08 ± 0.032
AATTATTGCA	0.997 ± 0.043
AAGGAGCTTG	0.9735 ± 0.0038
GGGTATAGTC	1.02 ± 0.074
ATAAAGTATG	0.99 ± 0.018
ACCATGCGTC	0.99 ± 0.031

Sequence	switch fluorescence ratio
AATCCAAAAG	1.026 ± 0.0043
TTTCCAGGG	1.17 ± 0.031
CGCATGTCGA	1.03 ± 0.025
GCGTGTGTTC	1.08 ± 0.049
ACTTTTAGTT	1.05 ± 0.018
TTAACCGGGA	1.02 ± 0.059
TTGTTTCCGA	1 ± 0.058
TGGTTACACG	1.06 ± 0.046
TTTTGGGTGC	1.08 ± 0.089
TAGTTAAATC	1 ± 0.042
GAGAGCTCAC	1.01 ± 0.021
ATAAGTCACG	1.06 ± 0.028
GCGTTACGGT	1.02 ± 0.0057
GTTTTACCGC	1.01 ± 0.018
AGTACCAATG	1.03 ± 0.039
TTTTTGGTAG	1 ± 0.042
ATGTGGCTCT	0.9984 ± 0.0069
AGTGGCCGCG	1.02 ± 0.016
AGCGAAAGGA	1.01 ± 0.023
TTTTTGGATC	1 ± 0.025
GTGGTGAAGG	0.99 ± 0.039
CTAAAGGGGA	1.08 ± 0.12
GAGAGTTAAG	0.9677 ± 0.0074
GTTAGCATTG	1 ± 0.029
CGGAGAGCTG	1.04 ± 0.014

Sequence	switch fluorescence ratio
CCTGGCATGC	2.56 ± 0.24
TTTTGCGAAA	1.55 ± 0.9
TTTATTGAGG	1.03 ± 0.011
GCCTTTTTTA	0.996 ± 0.016
TTTGTGTAGT	0.986 ± 0.065
TATAAAGAGG	0.987 ± 0.038
GTTATTTATT	0.995 ± 0.047
CCCGTGCCAG	1.02 ± 0.025
TTTCAGAAAT	1.91 ± 1.6
AACGCTGGCG	0.966 ± 0.028
ACGAATTCTG	1.02 ± 0.042
TTGGCCGGAT	0.9532 ± 0.0042
TGCTAGCATT	1.11 ± 0.15
TACTTTGGTT	0.975 ± 0.038
AGCGGTTCGC	0.9931 ± 0.0056
AGGGGTAAAT	1.02 ± 0.073
CATGGGGGAT	1.01 ± 0.035
TGGGGGGGA	1.03 ± 0.031
GGATACCGTA	1 ± 0.085
GGAGTCAGAA	0.995 ± 0.014
TTCGTTGGCT	1.16 ± 0.23
GGTTTTTGGT	1 ± 0.032
TGTGGGCTGG	1.02 ± 0.012
CAATGATCAG	1.006 ± 0.0081
TCGCCGCTTT	1.76 ± 0.11

Sequence	switch fluorescence ratio
TTTGAGTGCT	0.997 ± 0.029
GGCTGTGGCG	0.9761 ± 0.0015
GTGGGATTGG	1.01 ± 0.027
AACTTATTTT	1 ± 0.003
CGGGTTCCAC	1.01 ± 0.05
TTAGAGTGCA	1.02 ± 0.019
CTATAAGGG	0.985 ± 0.031
AGATATGGTG	1.01 ± 0.089
GGGACAGGTA	1.02 ± 0.022
TTGGAGGCGA	0.994 ± 0.062
GAGGATAGGG	0.9768 ± 0.0037
GGAAGTAGCC	0.959 ± 0.038
TTGATTTTGC	0.993 ± 0.013
ATACACGGCA	1.11 ± 0.03
TATGGGTGTG	1.02 ± 0.037
AGAGGAGGGA	0.9737 ± 0.0047
AAGAGAGGCA	1.02 ± 0.023
GCTGTAATCT	0.999 ± 0.027
CTGGGGCCTA	0.982 ± 0.023
TTCTTGAAG	0.966 ± 0.02
TAAACGGGAT	0.999 ± 0.019
GGTTGTGGGT	0.996 ± 0.015
CGGGCTTGGT	1.01 ± 0.032
TTAATATCCT	1.06 ± 0.026
TTTTGACTTA	1.04 ± 0.034

Sequence	switch fluorescence ratio
TTGCGAGGTC	0.985 ± 0.037
TATGTTTCCT	1.02 ± 0.037
TGTAGGGGGA	0.999 ± 0.052
TTTCTGGTCG	0.964 ± 0.019
AAGAGATTTG	0.981 ± 0.018
AATTTGTCCA	0.98 ± 0.015
TTCCGTTAGA	1.06 ± 0.017
TTATGGGGTT	0.999 ± 0.043
GCCAAAGGTG	1.72 ± 0.12
GGGTAATGGG	0.982 ± 0.024
AAGTGAGCAG	1.012 ± 0.0072
TTGGCAGGGG	1.06 ± 0.047
AATTTTCTGC	1.01 ± 0.053
TGGTAAAGCT	0.994 ± 0.017
TGTGTTTTCG	1 ± 0.014
TACGTGGCTG	1.05 ± 0.073
TTTGGACTGT	0.988 ± 0.019
AGGTGTAACA	1.15 ± 0.2
GACGGGAGGG	1.02 ± 0.02
ATTTTTTTT	0.996 ± 0.024
GCTTCTTTTG	1.09 ± 0.15
TAGGGGGATG	0.997 ± 0.028
AAGTCGCATA	1.04 ± 0.017
AATTTTTCCG	1.05 ± 0.036
TTCTGGGGGA	0.992 ± 0.039

Reference: the supplement of paper PMC10126150
